Laboratory results: article PMC9757748

Key:
[1] = molecular target: BcsD (purified alone via a cleavable N-terminal hexahistidine tag, Bcs^H^isD) (G. hansenii); test: cryo-EM structure
[2] = molecular target: N-terminally hexahistidine-tagged full-length BcsH (Bcs^H^isH^FL) (G. hansenii); test: SDS-PAGE and Western blot

Row | stoichiometry N [1] | stoichiometry N [2] | Substance
1 | 8 | – | BcsD (purified alone via a cleavable N-terminal hexahistidine tag, Bcs^H^isD) (natural protein)
2 | – | 2 | N-terminally hexahistidine-tagged full-length BcsH (Bcs^H^isH^FL) (natural protein)
